Data taken from the supplement of paper PMC9732359.
± gives the uncertainty stated by the source.

Experiment: protein stability index of a GFP-peptide fusion (yeast GPS) (PSI 1-4); higher = more stable; sorted into four equal gates, so the index is relative within each strain
Settings: pdr5∆
Outline: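 Peptides tiling yeast proteins in 17-residue segments were fused downstream of GFP, with Cherry expressed from the same plasmid. As a pooled library in yeast, mid-log cultures grown in leucine-free medium were sorted into four equal gates by GFP/Cherry fluorescence ratio. Gate plasmids were PCR-amplified and Illumina-sequenced, and barcodes linked reads to strains. Each peptide received a protein stability index equal to the sum of each gate's read frequency times its gate number.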
ILDNINHNGSALLIEVF [ITC1] gave a protein stability index of 1.22 ± 0.076.
ILDNTENYDDTELRQLF [DSN1] gave a protein stability index of 3.28 ± 0.068.
With ILDPQVTRFTTWNGSPF [YJL039C/NUP192] the protein stability index was 2.03 ± 0.12.
ILDTSQSESRQKRQLHD [SNU114] gave a protein stability index of 3.12 ± 0.084.
For ILERAYKKLDIDGKVIQ [SNF2], the protein stability index was 3.34 ± 0.076.
ILHGSKSQEQREHSLQL [PRP28] showed a protein stability index of 2.69 ± 0.089.
ILKSLKNRSNRKRFHSQ [YOR098C/NUP1] gave a protein stability index of 3.22 ± 0.066.
For ILNLLNILTTHLSHPGT [ECM29], the protein stability index was 1.75 ± 0.04.
For ILNLYSSAHLIRINDEP [YML103C/NUP188], the protein stability index was 2.18 ± 0.18.
Work on ILSGFHNAGPVAGAGAA [RPP1B] yielded a protein stability index of 2.97 ± 0.061.
ILSINAIDYEPEYEKAM [SMC1] showed a protein stability index of 3.1 ± 0.068.
With ILTKEVQGSTLAQLTSK [RPS1A] the protein stability index was 3 ± 0.08.
ILVFQVSMKANKYQIKK [RPL25] gave a protein stability index of 2.2 ± 0.054.
In the case of ILVKRYSIEMKPYSGKL [ECM29], the protein stability index is reported as 1.76 ± 0.049.
For IMECCQKNDTAAFKDIA [RRP40], the protein stability index was 3.54 ± 0.17.
In the case of IMNMIENVEKKEAALKT [SMC2], the protein stability index is reported as 1.83 ± 0.079.
INELTLLVQKRFKYAPG [RPS3] showed a protein stability index of 2.81 ± 0.14.
In the case of INFERIDEVFSWYLNTF [GRR1], the protein stability index is reported as 1.91 ± 0.044.
INFKSREAIRPGHEMED [AAR2] gave a protein stability index of 3.28 ± 0.091.
In the case of INIDDLLYELTAFKATV [YJL039C/NUP192], the protein stability index is reported as 2.67 ± 0.055.
In the case of INKEIFHHWLVEFINKM [SRB8], the protein stability index is reported as 1.76 ± 0.12.
In the case of INQYQLLYNLKNDILTN [SWI1], the protein stability index is reported as 1.33 ± 0.049.
INSGLYSVLLESPLSVA [YML103C/NUP188] gave a protein stability index of 1.18 ± 0.066.
INYLALNAANYNIDANV [ECM29] showed a protein stability index of 2.76 ± 0.2.
With IPDLSIQNDIYLNDLMI [RPN12] the protein stability index was 3.06 ± 0.042.
IPGGPKFEPLYPREEEE [PRP8] showed a protein stability index of 2.78 ± 0.15.
IPKPRTAGKTSVKSART [SNF2] showed a protein stability index of 3.26 ± 0.069.
IPLNRLSLDSDVKFPSN [SMC3] gave a protein stability index of 1.92 ± 0.064.
Work on IPRNSPLSDLKKRSQAK [RPC82] yielded a protein stability index of 3.17 ± 0.22.
IPSLANNGNNSTSIQYH [POP6] showed a protein stability index of 2.95 ± 0.06.
Sequence IPSSKYAYMMNSQSPRG [YLR018C/POM34] has a protein stability index of 2.69 ± 0.066.
With IPVIALTDLDSPSEFVD [RPS0A] the protein stability index was 2.69 ± 0.091.
IQELRKLLKSLLLNYLE [MED7] showed a protein stability index of 1.24 ± 0.069.
Work on IQHVGMINGRKLIKFET [FAS1] yielded a protein stability index of 2.85 ± 0.074.
For IQKGKFTLLDFKKQMQT [SRP54], the protein stability index was 1.85 ± 0.22.
Work on IQSQVFESLYNSNDSVF [BRR2] yielded a protein stability index of 2.31 ± 0.057.
In the case of IRAGEFDVVLTTFEYII [SNF2], the protein stability index is reported as 2.56 ± 0.13.
Work on IRAHQTELTHHLLPRNE [QCR7] yielded a protein stability index of 3.2 ± 0.072.
For IRALQPKLKEGALHFVQ [YIL149C/MLP2], the protein stability index was 2.06 ± 0.077.
IRENKVTYSRVSKKVDV [BRN1] showed a protein stability index of 2.93 ± 0.11.
With IRFRIEREVFVDVKPKS [RPC25] the protein stability index was 2.66 ± 0.16.
With IRITSLQGDLTFTKKCL [SIR4] the protein stability index was 2.71 ± 0.078.
Work on IRKFFGLSKEDDVRDFV [RPS6A] yielded a protein stability index of 3.35 ± 0.098.
IRKIVRKDENQFSYVDS [AAR2] showed a protein stability index of 3.14 ± 0.12.
IRNARSIRAEAVAASST [POP1] showed a protein stability index of 2.54 ± 0.23.
For IRTRRAAELLDKRIVIS [DIS3], the protein stability index was 1.81 ± 0.1.
With IRVLFKENGQLIGAATK [SEC65] the protein stability index was 2.12 ± 0.11.
Work on IRYNSVEIQEVPRTADR [RPC82] yielded a protein stability index of 2.64 ± 0.044.
In the case of ISDVKIQVAAFIYGMSA [PRP8], the protein stability index is reported as 2.17 ± 0.17.
ISELPPQIRQEIEQLDQ [YGL172W/NUP49] gave a protein stability index of 3.06 ± 0.061.
ISIKDNKLVMKSKFNKS [GAL11] showed a protein stability index of 2.59 ± 0.064.
With ISKQKSKLDYIFKDKEK [SMC1] the protein stability index was 2.71 ± 0.12.
ISKTVRFNVVKVSAAAG [RPS11A] gave a protein stability index of 1.6 ± 0.13.
For ISLEALNFYITNVPKAK [SIR3], the protein stability index was 2.82 ± 0.063.
ISMLVTQLQRGGTSDMN [CSI1] showed a protein stability index of 2.53 ± 0.12.
In the case of ISQKLTNVNVKIKDVQQ [SMC3], the protein stability index is reported as 2.34 ± 0.064.
Sequence ISQVSSIHAIGSIKEDY [RPB7] has a protein stability index of 2.65 ± 0.067.
ISSEKLLTLTNAANVPV [RPP1A] showed a protein stability index of 2.9 ± 0.1.
For ISSLGYRSHIFATNEER [SWI3], the protein stability index was 1.96 ± 0.056.
ISSRTYGQRAVLKFAAH [RPS0B] gave a protein stability index of 2.22 ± 0.095.
For ISTGGFMSNDGPTLEKY [SNU114], the protein stability index was 2.57 ± 0.065.
For ISVSSRSDREYPLLIRM [SRP14], the protein stability index was 2.44 ± 0.1.
ISVTDTEVERAKSLLKL [COR1] gave a protein stability index of 3.26 ± 0.084.
Work on ITDKTIKAFMDSTIGNS [IRR1] yielded a protein stability index of 2.62 ± 0.14.
ITFLIEKAKEMIRLLGS [ECM29] gave a protein stability index of 2.26 ± 0.1.
ITIQLTRDVEPENLQVT [BRR2] showed a protein stability index of 3.04 ± 0.13.
ITKEVTQVNILKENNAI [YIL149C/MLP2] gave a protein stability index of 3.14 ± 0.065.
With ITKLNKEIRAFDKLLNI [SRB4] the protein stability index was 3.44 ± 0.088.
Work on ITLIDSASLHLNYGVYL [RET1] yielded a protein stability index of 2.27 ± 0.081.
ITMPATNGKPDMAILER [ARP7] gave a protein stability index of 3.08 ± 0.059.
Sequence ITPSAMKLVPSIPPATI [RPB5] has a protein stability index of 2.56 ± 0.069.
ITRFGLSKMRDSVLQLA [RPO31] showed a protein stability index of 2.96 ± 0.14.
Work on ITYALSGYVRSRGESDD [RPS21B] yielded a protein stability index of 2.81 ± 0.11.
Sequence IVACELILSGDTTANNG [YJL039C/NUP192] has a protein stability index of 2.46 ± 0.068.
IVALSSEEINQYVTQIE [PRE6] gave a protein stability index of 2.97 ± 0.053.
Sequence IVEADEKKGIVQASVTS [RET1] has a protein stability index of 2.6 ± 0.11.
Work on IVGQKNLNRAFNGDQVI [DIS3] yielded a protein stability index of 2.83 ± 0.087.
In the case of IVLSKAASALDEKEKQL [SIR4], the protein stability index is reported as 3.03 ± 0.11.
With IVMQLRKCCNHPYLFEG [ISW2] the protein stability index was 2.53 ± 0.11.
IVRDLDRPGSKFHKREV [RPL3] showed a protein stability index of 3.44 ± 0.28.
IVSEDHIILDTISECNL [MED1] showed a protein stability index of 3.19 ± 0.081.
In the case of IVVATEHNPSAHTASVG [COR1], the protein stability index is reported as 2.46 ± 0.088.
For IWPAEDALRRGMLAMAS [MED4], the protein stability index was 3.24 ± 0.099.
Sequence IYAGYDDRYGYQLYTSN [PRE9] has a protein stability index of 2.14 ± 0.25.
For IYDFHKMENLMRLIKRV [YJL039C/NUP192], the protein stability index was 2.67 ± 0.079.
In the case of IYDKKDHKYVCTFSMEP [SRB8], the protein stability index is reported as 2.99 ± 0.11.
IYEEVRAVLKSFLESVI [HHF1] gave a protein stability index of 3.13 ± 0.15.
For IYFTVPNEFEIQLSTVN [RGR1], the protein stability index was 2.22 ± 0.058.
IYGVEWLIEGKLYVDAV [YDL116W/NUP84] showed a protein stability index of 1.2 ± 0.082.
Sequence IYNELSYELIKEECQIE [CSN9] has a protein stability index of 2.66 ± 0.06.
Sequence IYQTLIALNLDTTVNDC [SNF2] has a protein stability index of 2.53 ± 0.04.
For IYRGVLNDENSDDYDNE [SMC1], the protein stability index was 3.41 ± 0.15.
With IYYDSYIHLAYSRSVDK [SSN2] the protein stability index was 2.78 ± 0.14.
In the case of KAASSTRIFQALPRKLR [POP1], the protein stability index is reported as 3.36 ± 0.15.
KAEMPPEHLRKIINTHS [PRP8] showed a protein stability index of 1.74 ± 0.058.
With KAFKICEAAVEISKKDF [SIR3] the protein stability index was 2.88 ± 0.082.
Work on KAIELLEKALQGATNEG [SRP72] yielded a protein stability index of 1.14 ± 0.18.
Sequence KAKVEEMNNIIAASRRH [RPL36A] has a protein stability index of 3.25 ± 0.075.
In the case of KALDRHEFFIANHDDQD [SRP68], the protein stability index is reported as 2.98 ± 0.091.
Sequence KALKTNINFASGVKNDI [CDC53] has a protein stability index of 3.22 ± 0.068.
KATLELLKLIEPYVAYG [RPL7A] showed a protein stability index of 3.24 ± 0.083.
KCPGCLNITTVFSHAQT [RPS27A] showed a protein stability index of 2.76 ± 0.051.
